The values that follow come from US20230374132A1 (Innovent, published 2023).

Changes are numbered by the printed parent chain. In names and notes the source's numbering stands.

The labels stand for the following.
B1: hzsp34.8 (antibody, human IgG1, lambda, L234A L235A, V domains shown)
VH: EVQLVESGGGLVQPGGSLKLSCAASGFTFNTYAMNWVRQASGKGLEWVGRIRSKYNNYATYYADSVKDRFTISRDDSKSTLYLQMNSLKTEDTAVYYCARHGNFGNSYVSWFAYWGQGTTVTVSS
VL: QAVVTQEPSLTVSPGGTVTLTCRSSTGAVTTSNYANWFQQKPGQAPRTLIYGTNKRAPWTPARFSGSLLGGKAALTLLGAQPEDEAEYYCALWYSNLWVFGQGTKLTVLG
notes: IgG1 L234A L235A, lambda
B2: hzsp34.22 (antibody, human IgG1, lambda, L234A L235A, V domains shown)
VH: B1 VH with S79N
VL: B1 VL with F38V, T48G, Y51G, W59G, T60V, G71D
notes: IgG1 L234A L235A, lambda
B3: hzsp34.19 (antibody, human IgG1, lambda, L234A L235A, V domains shown)
VH: B1 VH with N106Q
VL: B1 VL with F38V, T48G, Y51G, W59G, T60V
notes: IgG1 L234A L235A, lambda
B4: hzsp34.23 (antibody, human IgG1, lambda, L234A L235A, V domains shown)
VH: B1 VH
VL: B1 VL with F38V, T48G, Y51G, W59G, T60V, G71D
notes: IgG1 L234A L235A, lambda
B5: hzsp34.15 (antibody, human IgG1, lambda, L234A L235A, V domains shown)
VH: B1 VH with G49A, N106Q
VL: B1 VL with F38V, Y51G, W59G, T60V
notes: IgG1 L234A L235A, lambda
B6: hzsp34.25 (antibody, human IgG1, lambda, L234A L235A, V domains shown)
VH: B1 VH with G49A, N106Q
VL: B1 VL with F38V, T48G, Y51G, W59G, T60V, G71D
notes: IgG1 L234A L235A, lambda
B7: hzsp34.20 (antibody, human IgG1, lambda, L234A L235A, V domains shown)
VH: B1 VH with G49A, N106Q
VL: B1 VL with F38V, T48G, Y51G, W59G, T60V
notes: IgG1 L234A L235A, lambda
B8: hzsp34.9 (antibody, human IgG1, lambda, L234A L235A, V domains shown)
VH: B1 VH with N106Q
VL: B1 VL
notes: IgG1 L234A L235A, lambda
B9: hzsp34.17 (antibody, human IgG1, lambda, L234A L235A, V domains shown)
VH: B1 VH with S79N
VL: B1 VL with F38V, T48G, Y51G, W59G, T60V
notes: IgG1 L234A L235A, lambda
B10: hzsp34.14 (antibody, human IgG1, lambda, L234A L235A, V domains shown)
VH: B1 VH with N106Q
VL: B1 VL with F38V, Y51G, W59G, T60V
notes: IgG1 L234A L235A, lambda
B11: hzsp34.10 (antibody, human IgG1, lambda, L234A L235A, V domains shown)
VH: B1 VH with G49A, N106Q
VL: B1 VL
notes: IgG1 L234A L235A, lambda
B12: hzsp34.18 (antibody, human IgG1, lambda, L234A L235A, V domains shown)
VH: B1 VH
VL: B1 VL with F38V, T48G, Y51G, W59G, T60V
notes: IgG1 L234A L235A, lambda
B13: hzsp34.110 (antibody, human IgG1, lambda, L234A L235A, V domains shown)
VH: B1 VH with N106Q
VL: B1 VL with F38V, T48G, Y51G, W59G, T60V, G71D, N96G
notes: CDR mutant of hzsp34.24; IgG1 L234A L235A, lambda
B14: hzsp34.112 (antibody, human IgG1, lambda, L234A L235A, V domains shown)
VH: B1 VH with N106Q
VL: B1 VL with S32R, N33G, F38V, T48G, Y51G, W59G, T60V, G71D
notes: as for B13
B15: hzsp34.113 (antibody, human IgG1, lambda, L234A L235A, V domains shown)
VH: B1 VH with N106Q
VL: B1 VL with F38V, T48G, Y51G, W59G, T60V, G71D, W93A, Y94A
notes: as for B13
B16: hzsp34.107 (antibody, human IgG1, lambda, L234A L235A, V domains shown)
VH: B1 VH with N106Q
VL: B1 VL with F38V, T48G, Y51G, W59G, T60V, G71D, W93A
notes: as for B13
B17: hzsp34.115 (antibody, human IgG1, lambda, L234A L235A, V domains shown)
VH: B1 VH with N106Q
VL: B1 VL with F38V, T48G, Y51G, K55S, W59G, T60V, G71D
notes: as for B13
B18: hzsp34.109 (antibody, human IgG1, lambda, L234A L235A, V domains shown)
VH: B1 VH with N106Q
VL: B1 VL with F38V, T48G, Y51G, W59G, T60V, G71D, S95R
notes: as for B13
B19: hzsp34.106 (antibody, human IgG1, lambda, L234A L235A, V domains shown)
VH: B1 VH with N106Q
VL: B1 VL with N33G, F38V, T48G, Y51G, W59G, T60V, G71D
notes: as for B13
B20: hzsp34.108 (antibody, human IgG1, lambda, L234A L235A, V domains shown)
VH: B1 VH with N106Q
VL: B1 VL with F38V, T48G, Y51G, W59G, T60V, G71D, Y94A
notes: as for B13
B21: hzsp34.114 (antibody, human IgG1, lambda, L234A L235A, V domains shown)
VH: B1 VH with N106Q
VL: B1 VL with F38V, T48G, Y51G, W59G, T60V, G71D, S95R, N96G
notes: as for B13
B22: hzsp34.111 (antibody, human IgG1, lambda, L234A L235A, V domains shown)
VH: B1 VH with N106Q
VL: B1 VL with T30G, T31G, F38V, T48G, Y51G, W59G, T60V, G71D
notes: as for B13

The target in the first assay is T1, human CD3 E&D complex protein (Sino Biological Inc., CT026H0323H) (human, UniProt P07766 23-126; P04234 22-105).
T1 construct: bought heterodimer; also called human CD3 protein (CT026H0323H)
T1 sequence (P07766 23-126, chain 1 of 2): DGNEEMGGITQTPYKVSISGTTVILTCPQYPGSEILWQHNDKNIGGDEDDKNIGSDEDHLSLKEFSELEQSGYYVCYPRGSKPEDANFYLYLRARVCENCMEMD
T1 sequence (P04234 22-105, chain 2 of 2): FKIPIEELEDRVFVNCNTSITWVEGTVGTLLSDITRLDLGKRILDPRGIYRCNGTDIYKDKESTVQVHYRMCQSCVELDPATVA
In words: BLI, antibody on sensor. As for the experimental part: (§1) 100 μl SD buffer, various antibodies, human CD3 E&D complex protein (Sino Biological Inc., CT026H0323H), and cynomolgus monkey CD3 E&D complex protein (Sino Biological Inc., CT032-00323H) were added into 96-well black polystyrene semi-quantitative micro-well plate (Greiner, 675076) respectively. Fortebio Octet Red 96 was used for detection, and the sensor position was selected according to the sample position. The setting parameters of the instrument are as follows: operation steps: Baseline, Loading-1 nm, Baseline, Association and Dissociation; the operation time of each step depends on the speed of sample association and dissociation. The rotational speed is 1000 rpm and the temperature is 30° C. ForteBio Octet analysis software was used to analyze KD value.
Take B1: the binding result is recorded as “no binding”.

B2: binding was put at a Kd of 0.605 nM, the koff came to 0.00214 s⁻¹ and the kon amounted to 3.54e+06 M⁻¹ s⁻¹.

Molecule B3 displayed a Kd of 0.613 nM, a koff of 0.00233 s⁻¹ and a kon of 3.8e+06 M⁻¹ s⁻¹.

The molecule B4 displayed a Kd of 0.554 nM, a koff of 0.00198 s⁻¹ and a kon of 3.57e+06 M⁻¹ s⁻¹.

With B5, the affinity, expressed as Kd, was 3.13 nM; the koff was 0.00202 s⁻¹; the on-rate constant (kon) came out at 644000 M⁻¹ s⁻¹.

Molecule B6 gave a Kd of 1.17 nM, an off-rate constant (koff) of 0.00273 s⁻¹ and a kon of 2.35e+06 M⁻¹ s⁻¹.

In the case of B7, the Kd was determined as 0.847 nM, the koff worked out at 0.00275 s⁻¹ and the on-rate constant (kon) turned out to be 3.25e+06 M⁻¹ s⁻¹.

With B8, the binding result was “no binding”.

With B9, binding was characterised by a dissociation constant (Kd) of 0.51 nM, the koff was determined as 0.00206 s⁻¹ and the kon stood at 4.04e+06 M⁻¹ s⁻¹.

B10: binding was put at a Kd of 2.41 nM, the koff came out at 0.00159 s⁻¹ and the on-rate (kon) came to 661000 M⁻¹ s⁻¹.

For B11, the binding result is recorded as “no binding”.

On to B12, for which the Kd came to 0.629 nM, the koff amounted to 0.00208 s⁻¹ and the kon stood at 3.31e+06 M⁻¹ s⁻¹.

For a further assay, the target named is T2, cynomolgus monkey CD3 E&D complex protein (Sino Biological Inc., CT032-00323H) (cynomolgus monkey, UniProt Q95LI5 22-117; Q95LI8 22-105).
T2 construct: bought heterodimer
T2 sequence (Q95LI5 22-117, chain 1 of 2): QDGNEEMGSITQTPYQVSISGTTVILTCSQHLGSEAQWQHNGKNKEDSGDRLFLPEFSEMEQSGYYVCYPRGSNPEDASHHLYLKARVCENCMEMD
T2 sequence (Q95LI8 22-105, chain 2 of 2): as the sequence (P04234 22-105, chain 2 of 2) above, with I5V, N15K, I20V, S32T, D33N, I34N, T64A, S74N, V83L counted along it
The assay is described as follows: BLI, antibody on sensor. The procedure:
as §1
For B1, the binding result is given as “no binding”.

Molecule B2 had a Kd of 0.585 nM, a koff of 0.000886 s⁻¹ and a kon of 1.52e+06 M⁻¹ s⁻¹.

B3: the Kd was determined as 0.602 nM, the koff was 0.00099 s⁻¹ and the kon came to 1.64e+06 M⁻¹ s⁻¹.

B4 yielded a Kd of 0.605 nM, a koff of 0.000791 s⁻¹ and a kon of 1.31e+06 M⁻¹ s⁻¹.

Take B5: the Kd was 1.75 nM, the off-rate constant (koff) amounted to 0.00115 s⁻¹ and the on-rate constant (kon) turned out to be 658000 M⁻¹ s⁻¹.

Molecule B6 showed an equilibrium dissociation constant (Kd) of 0.857 nM, an off-rate (koff) of 0.000913 s⁻¹ and an association rate constant (kon) of 1.07e+06 M⁻¹ s⁻¹.

On to B7, for which binding was characterised by a dissociation constant (Kd) of 0.756 nM, the koff was found to be 0.0011 s⁻¹ and the kon was 1.46e+06 M⁻¹ s⁻¹.

B8: the binding result is listed as “no binding”.

In the case of B9, binding was characterised by a dissociation constant (Kd) of 0.514 nM, the koff was 0.000915 s⁻¹ and the kon was found to be 1.78e+06 M⁻¹ s⁻¹.

In the case of B10, binding was characterised by a dissociation constant (Kd) of 0.195 nM, the dissociation rate constant (koff) came to 9.49e-05 s⁻¹ and the kon worked out at 488000 M⁻¹ s⁻¹.

With B11, the binding result is “no binding”.

Turning to B12, the affinity, expressed as Kd, was 0.67 nM; the off-rate (koff) is 0.00088 s⁻¹; the kon stood at 1.31e+06 M⁻¹ s⁻¹.

The next assay concerns the target T1, human CD3 E&D complex protein (Sino …). In words: BLI, antibody on sensor. This is another data set of the same source.
Regarding B13, the Kd was 0.951 nM, the koff stood at 0.0002 s⁻¹ and the kon came out at 210000 M⁻¹ s⁻¹.

For B14, the Kd amounted to 0.722 nM, the off-rate (koff) was found to be 0.000204 s⁻¹ and the kon is 282000 M⁻¹ s⁻¹.

Molecule B15 returned a Kd of 1.02 nM, a koff of 0.0002 s⁻¹ and an on-rate (kon) of 196000 M⁻¹ s⁻¹.

B16 displayed a Kd of 8.44 nM, a koff of 0.00141 s⁻¹ and a kon of 167000 M⁻¹ s⁻¹.

As to B17, binding was characterised by a dissociation constant (Kd) of 1.26 nM, the koff was 0.000331 s⁻¹ and the kon was found to be 264000 M⁻¹ s⁻¹.

In turn, B18 displayed an equilibrium dissociation constant (Kd) of 1.15 nM, a koff of 0.000258 s⁻¹ and a kon of 225000 M⁻¹ s⁻¹.

Turning to B19, the Kd stood at 1.54 nM, the koff amounted to 0.000365 s⁻¹ and the on-rate (kon) came out at 236000 M⁻¹ s⁻¹.

The molecule B20 came in with an equilibrium dissociation constant (Kd) of 0.965 nM, a koff of 0.0002 s⁻¹ and a kon of 207000 M⁻¹ s⁻¹.

For the molecule B21, the Kd amounted to 1.08 nM, the koff stood at 0.000282 s⁻¹ and the kon is 262000 M⁻¹ s⁻¹.

The molecule B22 had a dissociation constant (Kd) of 1.94 nM, a koff of 0.000454 s⁻¹ and an association rate constant (kon) of 235000 M⁻¹ s⁻¹.

For a further assay, the target named is T3, human CD3E&G complex (Sino Biological Inc., CT041-H0305H) (human, UniProt P07766 23-126; P09693 23-116).
T3 construct: bought heterodimer; also called human CD3E&G antigen
T3 sequence (P07766 23-126, chain 1 of 2): as the sequence (P07766 23-126, chain 1 of 2) above
T3 sequence (P09693 23-116, chain 2 of 2): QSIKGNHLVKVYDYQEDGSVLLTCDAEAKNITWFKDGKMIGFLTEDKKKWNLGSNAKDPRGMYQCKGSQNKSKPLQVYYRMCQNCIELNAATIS
In words: BLI, antibody on sensor.
Turning to B13, the affinity, expressed as Kd, was 8.49 nM; the koff is 0.00188 s⁻¹; the association rate constant (kon) stood at 222000 M⁻¹ s⁻¹.

Consider B14, for which the Kd came to 6.6 nM, the koff worked out at 0.00155 s⁻¹ and the kon was determined as 235000 M⁻¹ s⁻¹.

Take B15: the Kd stood at 3.71 nM, the koff came out at 0.000811 s⁻¹ and the association rate constant (kon) is 219000 M⁻¹ s⁻¹.

The molecule B16 displayed an equilibrium dissociation constant (Kd) of 59.8 nM, an off-rate (koff) of 0.00446 s⁻¹ and an on-rate constant (kon) of 74600 M⁻¹ s⁻¹.

B17: the Kd came to 7.7 nM, the koff came out at 0.00184 s⁻¹ and the kon came to 238000 M⁻¹ s⁻¹.

Molecule B18 displayed a Kd of 9.02 nM, a koff of 0.0021 s⁻¹ and a kon of 233000 M⁻¹ s⁻¹.

B19 came in with a Kd of 10.3 nM, an off-rate (koff) of 0.00237 s⁻¹ and an on-rate (kon) of 230000 M⁻¹ s⁻¹.

B20 registered a Kd of 7.19 nM, a koff of 0.00146 s⁻¹ and a kon of 203000 M⁻¹ s⁻¹.

The molecule B21 gave a Kd of 6.69 nM, a koff of 0.00134 s⁻¹ and a kon of 200000 M⁻¹ s⁻¹.

In the case of B22, the dissociation constant Kd was 9.5 nM, the koff came out at 0.00191 s⁻¹ and the kon stood at 201000 M⁻¹ s⁻¹.
